For assay [1], the target named is Hu-CD147IgG2 fusion protein (human). The assay can be described thus: BIAcore, surface Hu rCD147-IgG 791 RU.
Assay [2] addresses CD147 on cells (human) (UniProt P35613). The assay can be described thus: two-colour FACS of activated lymphocytes, CBL against CD25.

ABX-CBL antibody, sequence (HC): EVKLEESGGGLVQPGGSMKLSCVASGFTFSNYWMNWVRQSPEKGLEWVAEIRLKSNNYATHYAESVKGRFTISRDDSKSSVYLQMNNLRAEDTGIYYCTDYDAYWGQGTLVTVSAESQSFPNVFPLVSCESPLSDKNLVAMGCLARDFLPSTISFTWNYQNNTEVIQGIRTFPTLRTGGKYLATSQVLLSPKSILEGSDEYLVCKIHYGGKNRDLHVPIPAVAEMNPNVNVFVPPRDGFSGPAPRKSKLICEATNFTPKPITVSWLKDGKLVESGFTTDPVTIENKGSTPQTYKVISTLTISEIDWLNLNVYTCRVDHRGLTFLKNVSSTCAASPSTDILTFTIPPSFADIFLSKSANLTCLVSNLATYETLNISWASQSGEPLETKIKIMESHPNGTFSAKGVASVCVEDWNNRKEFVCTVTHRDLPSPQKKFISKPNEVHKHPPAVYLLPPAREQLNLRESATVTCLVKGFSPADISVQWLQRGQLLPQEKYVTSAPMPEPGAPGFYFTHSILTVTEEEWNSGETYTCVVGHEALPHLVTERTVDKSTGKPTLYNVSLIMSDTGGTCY
ABX-CBL antibody, sequence (LC): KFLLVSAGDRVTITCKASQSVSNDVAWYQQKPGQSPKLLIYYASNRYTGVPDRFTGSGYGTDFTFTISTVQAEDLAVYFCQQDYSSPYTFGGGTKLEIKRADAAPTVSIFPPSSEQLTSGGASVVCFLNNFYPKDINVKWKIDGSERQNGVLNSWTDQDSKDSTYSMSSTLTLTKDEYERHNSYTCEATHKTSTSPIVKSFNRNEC
CD147 on cells (human), sequence (P35613 other isoform, or with tags, fused parts or gaps limits assumed): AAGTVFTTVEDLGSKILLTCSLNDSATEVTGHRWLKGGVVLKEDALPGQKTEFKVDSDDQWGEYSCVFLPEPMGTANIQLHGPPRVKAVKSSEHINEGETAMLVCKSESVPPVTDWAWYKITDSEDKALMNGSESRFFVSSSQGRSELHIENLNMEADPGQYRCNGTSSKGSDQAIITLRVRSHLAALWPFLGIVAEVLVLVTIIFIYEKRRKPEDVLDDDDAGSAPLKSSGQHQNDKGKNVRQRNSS

In assay [1], ABX-CBL antibody gave a Ka of 1.39e+09 M⁻¹, a Kd of 518 pM, a koff of 0.000376 s⁻¹ and a kon of 725000 M⁻¹ s⁻¹. In assay [2], this substance came in with a % of cells in quadrant CBL negative / CD25 negative of 29.6%, a % of cells in quadrant CBL negative / CD25 positive of 1.6%, a % of cells in quadrant CBL positive / CD25 negative of 18.9% and a % of cells in quadrant CBL positive / CD25 positive of 50%.

Values taken from patent US20060104974A1.
